Here are results for two molecules from US20230272064A1 (ACROIMMUNE BIOTECH, published 2023).

The term IC50 denotes the midpoint of a concentration-inhibition curve. The term Kd denotes the equilibrium constant for the complex coming apart. By koff is commonly meant the rate constant with which the complex falls apart. Broadly, the kon is the rate constant with which the complex forms.

Experiment [1] has as its target T1, mouse TIGIT on C57/B6 wild-type mouse lymphocytes (mouse, UniProt P86176 29-249).
T1 construct: whole, on cells
T1 sequence (looked up): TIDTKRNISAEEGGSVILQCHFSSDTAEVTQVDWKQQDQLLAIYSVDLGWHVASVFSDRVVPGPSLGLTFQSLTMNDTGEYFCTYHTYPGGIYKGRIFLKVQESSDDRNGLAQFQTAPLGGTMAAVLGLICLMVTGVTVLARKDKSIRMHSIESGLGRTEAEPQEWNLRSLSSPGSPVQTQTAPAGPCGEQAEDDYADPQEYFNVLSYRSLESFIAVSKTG
The experiment is described as follows: flow cytometry on peripheral blood lymphocytes of a wild-type C57 mouse, 33D2 hybridoma supernatant, FITC rabbit anti-mouse IgG, PE anti-mouse CD3e. Background: In flow cytometry, cells or beads pass a laser one at a time.

The target of experiment [2] is T2, CD28 Fc fusion protein (Homo sapiens (Human), UniProt P10747 19-152). Description: ELISA, antigen coated at 2 µg/mL.
Experiment [3] addresses T3, BTLA Fc fusion protein (Homo sapiens (Human), UniProt Q7Z6A9 31-157).
T3 sequence: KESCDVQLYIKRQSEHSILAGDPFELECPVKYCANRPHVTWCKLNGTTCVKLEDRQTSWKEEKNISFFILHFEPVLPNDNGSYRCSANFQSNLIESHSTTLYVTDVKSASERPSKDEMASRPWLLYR
Description: ELISA, antigen coated at 2 µg/mL. On the technique in general: ELISA stands for enzyme-linked immunosorbent assay.

Experiment [4] addresses T4, PD-1 Fc fusion protein (Homo sapiens (Human), UniProt Q15116 25-170). The experiment is described as follows: ELISA, antigen coated at 2 µg/mL.
The target in experiment [5] is T5, B7-1 Fc fusion protein (Homo sapiens (Human), UniProt P33681 35-242).
T5 sequence: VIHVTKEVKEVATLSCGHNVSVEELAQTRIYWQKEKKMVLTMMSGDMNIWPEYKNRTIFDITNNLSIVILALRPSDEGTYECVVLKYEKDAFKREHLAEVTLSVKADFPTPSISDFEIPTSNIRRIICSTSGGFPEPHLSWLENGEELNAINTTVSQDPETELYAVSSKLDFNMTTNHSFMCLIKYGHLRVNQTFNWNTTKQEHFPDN
The experiment is described as follows: ELISA, antigen coated at 2 µg/mL.

The target in experiment [6] is Sirpa Fc fusion protein. The experiment is described as follows: ELISA, antigen coated at 2 µg/mL, mAb at 1 µg/mL.
Experiment [7] addresses CTLA4 Fc fusion protein. The experiment is described as follows: ELISA, antigen coated at 2 µg/mL, mAb at 1 µg/mL.
Experiment [8] deals with T6, recombinant human TIGIT extracellular membrane protein with a C-terminal histidine tag (human, UniProt Q495A1 22-141).
T6 construct: extracellular domain; Bought protein; two different product numbers are printed for it; also called TIGIT-His; TIGIT-his
T6 sequence (looked up): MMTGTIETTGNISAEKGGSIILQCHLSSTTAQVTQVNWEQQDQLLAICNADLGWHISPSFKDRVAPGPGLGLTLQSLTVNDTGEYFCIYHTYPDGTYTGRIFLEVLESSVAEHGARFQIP
Description: ELISA, antigen coated at 2 µg/mL, mAb at 1 µg/mL.

In experiment [9] the target is PD1H (PD2) Fc fusion protein. Description: ELISA, antigen coated at 2 µg/mL, mAb at 1 µg/mL.
The target in experiment [10] is PD-L1 Fc fusion protein. The experiment is described as follows: ELISA, antigen coated at 2 µg/mL, mAb at 1 µg/mL.
In experiment [11] the target is T2, CD28 Fc fusion protein. The experiment is described as follows: ELISA, antigen coated at 2 µg/mL, mAb at 1 µg/mL.
For experiment [12], the target named is T3, BTLA Fc fusion protein. The experiment is described as follows: ELISA, antigen coated at 2 µg/mL, mAb at 1 µg/mL.
For experiment [13], the target named is CD3 Fc fusion protein. The experiment is described as follows: ELISA, antigen coated at 2 µg/mL, mAb at 1 µg/mL.
In experiment [14] the target is PV1- (coated antigen of Table 2). Description: ELISA, antigen coated at 2 µg/mL, mAb at 1 µg/mL.
In experiment [15] the target is T4, PD-1 Fc fusion protein. The experiment is described as follows: ELISA, antigen coated at 2 µg/mL, mAb at 1 µg/mL.
The target in experiment [16] is T7, PD-L2 Fc fusion protein.
T7 sequence (Q9BQ51 whole entry, species assumed, looked up): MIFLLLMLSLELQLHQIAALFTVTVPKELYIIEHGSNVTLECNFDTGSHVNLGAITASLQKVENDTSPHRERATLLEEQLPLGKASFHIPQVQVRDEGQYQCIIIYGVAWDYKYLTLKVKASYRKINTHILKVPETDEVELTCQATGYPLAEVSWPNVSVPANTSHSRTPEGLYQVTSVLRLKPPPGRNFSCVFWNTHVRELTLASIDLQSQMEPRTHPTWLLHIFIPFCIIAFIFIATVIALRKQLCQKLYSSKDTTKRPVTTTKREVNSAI
Description: ELISA, antigen coated at 2 µg/mL, mAb at 1 µg/mL.

Experiment [17] addresses T5, B7-1 Fc fusion protein. The experiment is described as follows: ELISA, antigen coated at 2 µg/mL, mAb at 1 µg/mL.
Experiment [18] concerns the target T6, recombinant human TIGIT extracellular …. Description: competitive ELISA, TIGIT-His coated, competitor biotin-CD155-Fc; average of samples #2 and #4.
Experiment [19] has the same target. The experiment is described as follows: competitive ELISA, TIGIT-His coated, competitor biotin-CD155-Fc.
Experiment [20] has the same target. The experiment is described as follows: BLI (Fortebio-OCTET RED96), mAb captured on FAB2G sensor, TIGIT-His monomer as analyte, global fit, monovalent binding.

Several values for one entry are separate records, joined by “and”; a condition that tells them apart may be missing. Identical values can stand only once.

T2 sequence (P10747 19-152 limits assumed): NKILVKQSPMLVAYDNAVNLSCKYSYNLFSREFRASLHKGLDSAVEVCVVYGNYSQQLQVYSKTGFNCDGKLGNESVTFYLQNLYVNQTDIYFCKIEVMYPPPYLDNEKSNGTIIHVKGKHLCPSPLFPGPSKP
T4 sequence (Q15116 25-170 limits assumed): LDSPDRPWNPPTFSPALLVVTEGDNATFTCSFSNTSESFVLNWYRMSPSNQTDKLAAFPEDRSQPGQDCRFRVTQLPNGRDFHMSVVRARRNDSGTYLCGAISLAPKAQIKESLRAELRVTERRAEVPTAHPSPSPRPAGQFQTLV
Sequence of Sirpa Fc fusion protein (P78324 whole entry, the tested form may be a part): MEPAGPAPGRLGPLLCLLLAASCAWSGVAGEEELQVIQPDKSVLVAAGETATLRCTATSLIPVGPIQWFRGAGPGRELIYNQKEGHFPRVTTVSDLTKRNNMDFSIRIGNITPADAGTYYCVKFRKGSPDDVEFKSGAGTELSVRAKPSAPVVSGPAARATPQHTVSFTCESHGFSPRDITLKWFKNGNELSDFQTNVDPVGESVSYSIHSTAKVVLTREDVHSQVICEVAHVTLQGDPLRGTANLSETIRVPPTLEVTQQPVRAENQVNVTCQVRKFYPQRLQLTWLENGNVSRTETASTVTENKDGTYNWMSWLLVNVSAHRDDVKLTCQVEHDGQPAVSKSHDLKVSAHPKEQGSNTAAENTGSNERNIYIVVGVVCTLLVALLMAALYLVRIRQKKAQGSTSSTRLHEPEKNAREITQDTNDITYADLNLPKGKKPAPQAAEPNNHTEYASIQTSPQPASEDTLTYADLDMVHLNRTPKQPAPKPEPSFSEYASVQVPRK
Sequence of PD-L1 Fc fusion protein (Q9NZQ7 whole entry, the tested form may be a part): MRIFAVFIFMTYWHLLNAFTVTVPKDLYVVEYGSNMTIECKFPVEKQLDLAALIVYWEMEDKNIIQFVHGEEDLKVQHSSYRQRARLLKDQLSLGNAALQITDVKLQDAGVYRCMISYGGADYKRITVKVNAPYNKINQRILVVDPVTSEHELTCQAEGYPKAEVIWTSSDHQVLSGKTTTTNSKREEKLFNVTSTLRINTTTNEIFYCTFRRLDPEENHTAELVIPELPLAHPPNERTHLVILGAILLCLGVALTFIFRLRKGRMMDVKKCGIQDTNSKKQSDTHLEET
Sequence of CTLA4 Fc fusion protein (P16410 36-161): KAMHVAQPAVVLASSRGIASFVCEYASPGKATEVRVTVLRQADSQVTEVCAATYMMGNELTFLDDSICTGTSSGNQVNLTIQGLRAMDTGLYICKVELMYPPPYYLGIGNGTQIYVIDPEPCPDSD

B1: murine anti-human TIGIT monoclonal antibody 33D2 (antibody, V domains shown)
VH: EVQLQQSGPDLVKPGASVKISCKASGYSFTGYYMHWVKQSHGKSLEWIGRVNPNNGDTRYNQKFKGKAILTVDKSSSTAYMELRSLTSEDSAVYYCAREGDYDERFAYWGQGTLVTVSA
VL: DIVMTQSHKFMSTSLGDRVSITCKASQDVGSTVAWYQQKPGQSPKLLIYWASTRHTGVPDRFTGSGSGTDFTLTITNVQSEDLADYFCQQYTSFPYTFGGGTKLEIK
notes: Mouse hybridoma antibody, used as purified protein (Protein G) or as hybridoma supernatant; also called m33D2; 33D2 mAb
Regarding B1, the binding result is “no binding” in experiment [1]; “no binding (tested: 1 µg/mL)” in [2]; “no binding (tested: 1 µg/mL)” in [3]; “no binding (tested: 1 µg/mL)” in experiment [4]; “no binding (tested: 1 µg/mL)” in experiment [5]. The “OD at 495 nm” value in experiment [6] is 0.01 OD; in experiment [7], 0.02 OD; in experiment [8] it was 1.01 OD; in experiment [9] it was 0.01 OD; in experiment [10] it was 0 OD; in experiment [11], 0.03 OD. Also, the “OD at 495 nm” value was found to be 0.01 OD in experiment [12]; 0.01 OD in [13]; 0.05 OD in experiment [14]; 0.01 OD in experiment [15]; 0.04 OD in experiment [16]; 0.03 OD in experiment [17]. For the same molecule, the IC50 in [18] was 0.13 µg/mL and 0.867 nM; in [19], 0.135 µg/mL and 0.9 nM and 0.125 µg/mL and 0.833 nM.

B2: humanized antibody h33D2 (antibody, V domains shown)
VH: QVQLVQSGAEVKKPGASVKVSCKASGYSFTGYYMHWVRQAPGQGLEWMGRVNPNNGDTRYNQKFKGRVTMTRDTSISTAYMELSRLRSDDTVVYYCAREGDYDERFAYWGQGTLVTVSA
VL: DIQLTQSPSFLSASVGDRVTITCKASQDVGSTVAWYQQKPGKAPKLLIYWASTRHTGVPSRFSGSGSGTEFTLTISSLQPEDFATYYCQQYTSFPYTFGGGTKLEIK
notes: IgG4-kappa; human IgG4 heavy chain constant region with S228P in the hinge and human kappa light chain constant region; also called humanized 33D2 mAb; h33D2-light chain and h33D2-heave chain
As for B2, in [20], the Kd was 0.843 nM, the koff is 0.00023 s⁻¹ and the kon came to 273000 M⁻¹ s⁻¹.
